Experimental data from IntAct's records for PubMed 21236255.

B1: Zinc-dependent sulfurtransferase SufU (Bacillus subtilis), O32163 (parent)
chain: MSFNANLDTLYRQVIMDHYKNPRNKGVLNDSIVVDMNNPTCGDRIRLTMKLDGDIVEDAKFEGEGCSISMASASMMTQAIKGKDIETALSMSKIFSDMMQGKEYDDSIDLGDIEALQGVSKFPARIKCATLSWKALEKGVAKEEGGN

Variants of: B1
Conditions: with sufs_bacsu sufS
MSFNANLDTLYRQVIMDHYKNPRNKGVLNDSIVVDMNNPTCGDRIRLTMKLDGDIVEDAKFEGEGASISMASASMMTQAIKGKDIETALSMSKIFSDMMQGKEYDDSIDLGDIEALQGVSKFPARIKCATLSWKALEKGVAKEEGGN [C66A] was tested, and the “effect of a mutation on the interaction” value was “disrupting interaction”.

Variants of: B1
Conditions: with sufs_bacsu sufS
Remark: another data set of the same source
MSFNANLDTLYRQVIMDHYKNPRNKGVLNDSIVVDMNNPTAGDRIRLTMKLDGDIVEDAKFEGEGCSISMASASMMTQAIKGKDIETALSMSKIFSDMMQGKEYDDSIDLGDIEALQGVSKFPARIKCATLSWKALEKGVAKEEGGN [C41A] was tested, and the “effect of a mutation on the interaction” value was “disrupting interaction”.

Variants of: B1
Conditions: with sufs_bacsu sufS
Remark: another data set of the same source
MSFNANLDTLYRQVIMDHYKNPRNKGVLNDSIVVDMNNPTAGDRIRLTMKLDGDIVEDAKFEGEGCSISMASASMMTQAIKGKDIETALSMSKIFSDMMQGKEYDDSIDLGDIEALQGVSKFPARIKCATLSWKALEKGVAKEEGGN [C41A] was tested, and the “effect of a mutation on the interaction” value was “increasing interaction”.

Variants of: B1
Conditions: with sufs_bacsu sufS
Remark: another data set of the same source
For MSFNANLDTLYRQVIMDHYKNPRNKGVLNDSIVVDMNNPTCGDRIRLTMKLDGDIVEDAKFEGEGCSISMASASMMTQAIKGKDIETALSMSKIFSDMMQGKEYDDSIDLGDIEALQGVSKFPARIKAATLSWKALEKGVAKEEGGN [C128A], the “effect of a mutation on the interaction” value was “disrupting interaction”.
